Reference: paper PMC6337079, “Exploring Novel Functions of the Small GTPase Ypt1p under Heat-Shock by Characterizing a Temperature-Sensitive Mutant Yeast Strain, ypt1-G80D” (International Journal of Molecular Sciences, 2019)

B1: Ypt1p (purified bacterially expressed recombinant) (natural protein)
chain: not shown
notes: Ypt1p, Rab family small GTPase of Saccharomyces cerevisiae, from the plasmid pGEX-YPT1; monomer printed as 23.5 kDa; also called native Ypt1p; wild-type Ypt1p; source: E. coli BL21(DE3)pLysS, purified (GSH-agarose, thrombin cleavage, TSK heparin-5PW HPLC, ATP-agarose)
B2: Ypt1p^G80D (purified bacterially expressed recombinant) (natural protein)
chain: not shown
notes: Ypt1p of Saccharomyces cerevisiae with G80D, from the plasmid pGEX-ypt1^G80D (pGEX-2T, BamHI/HindIII insert); source: E. coli BL21(DE3)pLysS, purified (GSH-agarose, thrombin cleavage, TSK heparin-5PW HPLC, ATP-agarose)

Target: the molecule itself
Assay: native gel or EMSA; purified protein (3 μg/μL) incubated at 25 °C or 45 °C for 30 min, native-PAGE, silver-stained; self-association

Protein | binding result
B1 | binds
B2 | binds
